Laboratory results from PMC3630801 (Biochemistry, 2013).
Where two headings read alike, the source gives them in different places. Each block holds one binder with its values, some of them ahead of it.

Assays:
DEER = target: the molecule itself; test: DEER
[1] = target: T1, BtuB, Escherichia coli vitamin B12 transporter (wild type) (Escherichia coli, UniProt P06129 21-614); test: continuous-wave EPR lineshape
T1 sequence (looked up): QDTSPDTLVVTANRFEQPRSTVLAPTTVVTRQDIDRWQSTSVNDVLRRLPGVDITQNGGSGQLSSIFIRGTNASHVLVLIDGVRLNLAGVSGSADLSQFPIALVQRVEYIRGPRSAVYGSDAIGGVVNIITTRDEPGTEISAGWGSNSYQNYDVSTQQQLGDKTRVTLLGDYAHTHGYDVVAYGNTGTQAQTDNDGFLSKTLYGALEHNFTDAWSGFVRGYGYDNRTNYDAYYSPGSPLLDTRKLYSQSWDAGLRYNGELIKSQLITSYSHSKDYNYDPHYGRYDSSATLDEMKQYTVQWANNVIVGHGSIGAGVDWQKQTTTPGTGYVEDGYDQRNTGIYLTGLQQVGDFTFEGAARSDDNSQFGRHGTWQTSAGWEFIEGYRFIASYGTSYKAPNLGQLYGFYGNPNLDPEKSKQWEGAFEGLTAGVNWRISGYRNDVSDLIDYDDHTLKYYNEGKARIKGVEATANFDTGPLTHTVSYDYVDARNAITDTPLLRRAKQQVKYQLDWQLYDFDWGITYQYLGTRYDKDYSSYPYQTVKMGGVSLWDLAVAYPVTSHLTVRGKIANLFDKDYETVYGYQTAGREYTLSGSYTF

[2] = target: T2, FhuA, Escherichia coli ferrichrome transporter (Escherichia coli, UniProt P06971 34-747); test: DEER
T2 sequence (looked up): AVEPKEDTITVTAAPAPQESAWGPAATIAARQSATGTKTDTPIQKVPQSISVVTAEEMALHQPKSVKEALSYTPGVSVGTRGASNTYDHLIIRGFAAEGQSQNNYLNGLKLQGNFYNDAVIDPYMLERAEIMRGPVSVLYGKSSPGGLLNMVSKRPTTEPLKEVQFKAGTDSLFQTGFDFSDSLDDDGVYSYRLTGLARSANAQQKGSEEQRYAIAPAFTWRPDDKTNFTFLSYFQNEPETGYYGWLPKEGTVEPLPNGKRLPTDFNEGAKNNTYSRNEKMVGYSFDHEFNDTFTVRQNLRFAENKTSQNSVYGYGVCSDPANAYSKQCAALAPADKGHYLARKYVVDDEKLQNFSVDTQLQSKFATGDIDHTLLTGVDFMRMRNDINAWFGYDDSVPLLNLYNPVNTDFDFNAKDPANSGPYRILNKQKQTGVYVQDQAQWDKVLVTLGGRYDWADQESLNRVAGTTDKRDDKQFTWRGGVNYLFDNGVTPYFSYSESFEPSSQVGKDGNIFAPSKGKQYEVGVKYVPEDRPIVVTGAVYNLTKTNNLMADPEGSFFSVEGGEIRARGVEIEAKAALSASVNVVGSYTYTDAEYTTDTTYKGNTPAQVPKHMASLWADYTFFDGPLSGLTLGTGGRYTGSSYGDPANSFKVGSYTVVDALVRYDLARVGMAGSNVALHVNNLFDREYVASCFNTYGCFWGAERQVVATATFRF

[3] = target: T3, FecA, Escherichia coli ferric citrate transporter (Escherichia coli, UniProt P13036 34-774); test: DEER
T3 sequence (looked up): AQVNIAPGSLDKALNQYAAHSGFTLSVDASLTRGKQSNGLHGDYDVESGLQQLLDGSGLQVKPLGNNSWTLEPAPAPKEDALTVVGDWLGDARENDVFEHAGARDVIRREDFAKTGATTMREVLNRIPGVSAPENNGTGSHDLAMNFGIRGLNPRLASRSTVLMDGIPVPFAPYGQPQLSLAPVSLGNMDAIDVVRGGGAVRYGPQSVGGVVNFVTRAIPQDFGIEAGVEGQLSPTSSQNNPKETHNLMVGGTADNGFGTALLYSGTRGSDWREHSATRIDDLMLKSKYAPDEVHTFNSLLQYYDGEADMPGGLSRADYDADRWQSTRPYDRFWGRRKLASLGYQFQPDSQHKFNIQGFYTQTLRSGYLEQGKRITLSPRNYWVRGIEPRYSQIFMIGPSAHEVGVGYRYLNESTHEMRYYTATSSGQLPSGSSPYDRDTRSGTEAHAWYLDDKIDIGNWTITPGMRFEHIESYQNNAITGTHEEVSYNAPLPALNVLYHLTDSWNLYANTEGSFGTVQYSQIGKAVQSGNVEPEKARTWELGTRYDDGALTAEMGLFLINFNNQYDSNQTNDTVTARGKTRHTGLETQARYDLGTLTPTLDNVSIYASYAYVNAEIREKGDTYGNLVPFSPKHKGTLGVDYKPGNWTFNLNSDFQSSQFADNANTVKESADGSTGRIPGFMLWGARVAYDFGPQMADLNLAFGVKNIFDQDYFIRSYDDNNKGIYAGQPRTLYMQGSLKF

[4] = target: T2, FhuA, Escherichia coli ferrichrome …; test: fluorescence polarisation
[5] = target: T1, BtuB, Escherichia coli vitamin B12 …; test: fluorescence polarisation
[6] = target: T2, FhuA, Escherichia coli ferrichrome …; test: fluorescence polarisation; remark: listed apart in the source
[7] = target: T1, BtuB, Escherichia coli vitamin B12 …; test: fluorescence polarisation; remark: listed apart in the source

binding result [1]: binds
binding result [2]: binds
binding result [3]: binds
B1: TonB_(ΔTMD) E203R1 (spin-labeled) (domain or fragment)
chain: not shown
modifications: R1 spin-label side chain (cysteine derivatized with MTSL) at 203
binding result (DEER): binds

Kd [4]: 38 nM
Kd [5]: 26 nM
Kd [6]: 64 nM
Kd [7]: 61 nM
B2: TonB_(ΔTMD) L194C labeled with BODIPY FL (domain or fragment)
chain: not shown
modifications: BODIPY FL N-(2-aminoethyl)maleimide on Cys194 (labeling efficiency ~75%)

binding result [1]: binds
B3: TonB_(ΔTMD) I224R1 (spin-labeled) (domain or fragment)
chain: not shown
modifications: R1 spin-label side chain (cysteine derivatized with MTSL) at 224
binding result (DEER): binds

binding result [1]: binds
B4: TonB_(ΔTMD) R187R1 (spin-labeled) (domain or fragment)
chain: not shown
modifications: R1 spin-label side chain (cysteine derivatized with MTSL) at 187
